Target: T1, Schizosaccharomyces pombe TFIIB (S. pombe, UniProt O13749 1-340)
T1 construct: General transcription factor TFIIB of S. pombe (sua7), 340 aa as printed; also called SpIIB; fission yeast TFIIB
T1 sequence (looked up): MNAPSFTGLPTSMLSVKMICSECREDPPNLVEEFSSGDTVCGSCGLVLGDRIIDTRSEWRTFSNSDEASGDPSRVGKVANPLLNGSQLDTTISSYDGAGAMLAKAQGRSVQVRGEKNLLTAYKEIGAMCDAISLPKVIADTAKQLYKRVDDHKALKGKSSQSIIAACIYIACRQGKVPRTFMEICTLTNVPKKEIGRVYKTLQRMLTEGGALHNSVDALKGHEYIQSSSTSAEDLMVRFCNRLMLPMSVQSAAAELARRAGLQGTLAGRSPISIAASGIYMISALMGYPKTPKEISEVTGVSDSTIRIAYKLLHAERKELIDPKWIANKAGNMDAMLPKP
Test: native gel or EMSA; TBP and TFIIB (20 ng each) on 32P-labelled Ad-MLP TATA box probe; 20 mM HEPES pH 7.9, 50 mM KCl, 5 mM MgCl2, 5% glycerol; 15 min at 30 °C; 5% polyacrylamide gel at 4 °C
Settings: both partners purified

B1: Schizosaccharomyces pombe TATA-binding protein (natural protein, S. pombe, UniProt P17871 1-231, looked up)
chain: MDFALPTTASQASAFMNNSSLTFPVLPNANNEATNETADSGDAEVSKNEGVSGIVPTLQNIVATVNLDCRLDLKTIALHARNAEYNPKRFAAVIMRIREPKSTALIFASGKMVVLGGKSEDDSKLASRKYARIIQKLGFNAKFTDFKIQNIVGSCDVKFPIRLEGLAYSHGTFSSYEPELFPGLIYRMVKPKVVLLIFVSGKIVLTGAKVREEIYQAFEAIYPVLSEFRKH
notes: also called TBP; fission yeast TBP
binding result: binds
